This is an account of results in patent US20060134756A1 (ZymoGenetics, published 2006).

This assay deals with T1, CRF2-4/IL-22RA heterodimeric receptor on BaF3 cells (BaF3/CRF2-4/IL-22RA cells) (human, UniProt Q08334 20-325, limits assumed).
T1 sequence 1: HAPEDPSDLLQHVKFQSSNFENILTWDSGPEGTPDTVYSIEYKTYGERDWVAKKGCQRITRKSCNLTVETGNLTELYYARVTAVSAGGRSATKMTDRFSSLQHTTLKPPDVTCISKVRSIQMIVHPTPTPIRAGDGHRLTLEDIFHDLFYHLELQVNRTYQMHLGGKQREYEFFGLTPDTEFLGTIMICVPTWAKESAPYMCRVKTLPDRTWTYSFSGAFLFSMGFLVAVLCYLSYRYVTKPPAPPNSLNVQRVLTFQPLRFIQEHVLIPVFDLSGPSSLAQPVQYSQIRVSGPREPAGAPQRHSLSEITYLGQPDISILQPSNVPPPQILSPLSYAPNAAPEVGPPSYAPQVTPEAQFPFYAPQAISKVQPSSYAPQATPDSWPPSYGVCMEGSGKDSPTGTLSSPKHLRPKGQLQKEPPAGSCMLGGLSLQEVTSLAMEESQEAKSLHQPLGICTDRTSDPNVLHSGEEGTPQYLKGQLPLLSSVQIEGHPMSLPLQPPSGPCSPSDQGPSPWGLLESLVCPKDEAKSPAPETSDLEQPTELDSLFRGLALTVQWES
T1 sequence 2: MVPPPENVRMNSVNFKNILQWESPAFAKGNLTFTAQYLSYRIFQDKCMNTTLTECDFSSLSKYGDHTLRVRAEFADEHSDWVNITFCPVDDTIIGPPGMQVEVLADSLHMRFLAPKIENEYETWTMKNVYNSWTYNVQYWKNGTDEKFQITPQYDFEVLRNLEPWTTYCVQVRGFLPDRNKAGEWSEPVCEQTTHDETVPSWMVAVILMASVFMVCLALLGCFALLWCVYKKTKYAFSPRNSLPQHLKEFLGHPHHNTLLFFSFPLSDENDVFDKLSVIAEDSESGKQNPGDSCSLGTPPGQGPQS
The assay is described as follows: cell-based or functional assay.

B1: IL-22-CEE (ligand)
chain: LLLALLVQGGAAAPISSHCRLDKSNFQQPYITNRTFMLAKEASLADNNTDVRLIGEKLFHGVSMSERCYLMKQVLNFTLEEVLFPQSDRFQPYMQEVVPFLARLSNRLSTCHIEGDDLHIQRNVQKLKDTVKKLGESGEIKAIGELEYMPME
As to B1, the “proliferation of BaF3/CRF2-4/IL-22RA cells (Alamar Blue), IL-22-CEE at 0.06 ng/ml” value is around 2 fold over background.
